B1: MBP-SHLD3^28-83 (domain or fragment, human, UniProt Q6ZNX1 28-83, looked up)
chain: QDFPTRPLSRFIPWFPYDGSKLPLRPKRSPPVISEEAAEDVKQYLTISEHDAKSHS
notes: SHLD3, human, residues 28-83; contains only the second RBM; also called SHLD3^28-83 peptide; SHLD3-fragment; source: E. coli Rosetta, purified (metal chelating column, SEC); not shown: hexahistidine-MBP, N-terminal, kept
B2: His6-EGFP-TRIP13^E253Q (enzyme, human, UniProt Q15645 1-432, looked up)
chain: MDEAVGDLKQALPCVAESPTVHVEVHQRGSSTAKKEDINLSVRKLLNRHNIVFGDYTWTEFDEPFLTRNVQSVSIIDTELKVKDSQPIDLSACTVALHIFQLNEDGPSSENLEEETENIIAANHWVLPAAEFHGLWDSLVYDVEVKSHLLDYVMTTLLFSDKNVNSNLITWNRVVLLHGPPGTGKTSLCKALAQKLTIRLSSRYRYGQLIEINSHSLFSKWFSESGKLVTKMFQKIQDLIDDKDALVFVLIDQVESLTAARNACRAGTEPSDAIRVVNAVLTQIDQIKRHSNVVILTTSNITEKIDVAFVDRADIKQYIGPPSAAAIFKIYLSCLEELMKCQIIYPRQQLLTLRELEMIGFIENNVSKLSLLLNDISRKSEGLSGRVLRKLPFLAHALYVQAPTVTIEGFLQALSLAVDKQFEERKKLAAYI
notes: TRIP13, human, with E253Q; printed mass of GFP-TRIP13 75.5 kDa; source: insect cells (Hi5, baculovirus, biGBac), purified
B3: TRIP13^E253Q (48.5 kDa form, Fig. 3f) (enzyme, human, UniProt Q15645 1-432, looked up)
chain: B2 chain
notes: TRIP13, human, with E253Q; printed mass 48.5 kDa (291 kDa for hexamer); The printed mass fits TRIP13 without the EGFP fusion; source: insect cells (Hi5, baculovirus, biGBac), purified

Assays:
[1] = target: T1, MAD2L2^WT (E. coli) (human, UniProt Q9UI95 1-211); experiment: pull-down; 0.25 uM MBP-SHLD3^28-83 pre-adsorbed on amylose beads, eightfold molar excess of MAD2L2 variant, time course at 4 C in buffer B (10 mM HEPES pH 7.5, 0.15 M NaCl, 5% glycerol, 0.5 mM TCEP); Coomassie SDS-PAGE; conditions: both partners purified
T1 construct: MAD2L2 (REV7), human; source: E. coli Rosetta, purified (metal chelating column, PreScission cleavage, SEC); not shown: GST/hexahistidine-MBP fusion-tag, N-terminal, cleaved

[2] = target: T2, MAD2L2^3xMut (E. coli) (human, UniProt Q9UI95 1-211, K44A | R124A | A135D); experiment: as above; conditions: both partners purified
T2 construct: MAD2L2 (REV7), human, with K44A, R124A and A135D; also called MAD2L2^K44A/R124A/A135D; source: E. coli Rosetta, purified (metal chelating column, PreScission cleavage, SEC); not shown: GST/hexahistidine-MBP fusion-tag, N-terminal, cleaved

[3] = target: T3, MAD2L2^1xMut (E. coli) (human, UniProt Q9UI95 1-211, R124A); experiment: as above; conditions: both partners purified
T3 construct: MAD2L2 (REV7), human, with R124A; also called MAD2L2^R124A; source: E. coli Rosetta, purified (metal chelating column, PreScission cleavage, SEC); not shown: GST/hexahistidine-MBP fusion-tag, N-terminal, cleaved

[4] = target: the molecule itself; experiment: SEC; Superdex-200 in buffer C (25 mM Tris pH 8, 0.3 M NaCl, 10% glycerol, 0.5 mM TCEP, 10 mM MgCl2) + 0.1 mM ATP; proteins incubated 2 h on ice with 2 mM ATP before the run; equimolar in Fig. 3f

T2 sequence (Q9UI95 whole entry K44A/R124A/A135D, the tested form may be a part): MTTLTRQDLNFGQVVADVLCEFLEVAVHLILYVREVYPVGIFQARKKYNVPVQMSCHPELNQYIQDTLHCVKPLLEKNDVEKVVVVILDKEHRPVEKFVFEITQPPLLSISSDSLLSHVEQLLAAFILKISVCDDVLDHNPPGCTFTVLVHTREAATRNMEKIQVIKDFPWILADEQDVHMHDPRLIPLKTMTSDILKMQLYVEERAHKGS
T1 sequence (Q9UI95 whole entry, the tested form may be a part): as the sequence (Q9UI95 whole entry K44A/R124A/A135D, the tested form may be a part) above, with A44K, A124R, D135A counted along it
T3 sequence (Q9UI95 whole entry R124A, the tested form may be a part): as the sequence (Q9UI95 whole entry K44A/R124A/A135D, the tested form may be a part) above, with A44K, D135A counted along it

Row | Binder | binding result [1] | binding result [2] | binding result [3] | stoichiometry N [4]
1 | B1 | binds | binds | binds | 
2 | B2 |  |  |  | 6
3 | B3 |  |  |  | 6
